# Assay results taken from article doi:10.1101/2023.07.24.550339 (bioRxiv, 2023).
# B1: Rab35-GPPNHP, recombinant (natural protein)
# chain: not shown
# B2: Rac1BD-Rab35BD (MiniBAR70-553), recombinant (domain or fragment)
# chain: not shown
# B3: Rac1BD (MiniBAR70-208), recombinant (domain or fragment)
# chain: not shown
# Tests used:
# [1] = target: Rab35BD (MiniBAR225-553), recombinant (human, UniProt O15063 225-553); assay: ITC
# [2] = target: Rac1Q61L, recombinant (human, UniProt P63000 1-192, Q61L); assay: ITC
# [3] = target: the molecule itself; assay: SAXS
# [4] = target: the molecule itself; assay: SEC-MALS
binder,measurement,setting,value
B1,Kd,[1],~2000 nM
B2,Kd,[2],~200 nM
same,stoichiometry N,[3],2
B3,stoichiometry N,[4],2
